The chains are these.
B1: NLV3 TCR beta chain (CDR3β only) (parent)
chain: ASSPTGGSPSPLH
partner: MLVPMVATV

The values below come from article PMC13397619.

The variants in the first test derive from B1. Description: T-Switch: Jurkat TCRβ−/− cells expressing a CDR3 saturation-mutagenesis library, stained with two peptide-HLA-A*02:01 tetramers (original and novel peptide) plus anti-CD3, FACS-sorted into four gates, gDNA sequenced. The following applies: with HLA-A*02:01 with peptide … (NLV 3-1, the original bait), tetramers 1 µg/mL, 30 min on ice, DP and SW gates expanded about 10 days between rounds ('two to three rounds of selection' in the Methods), gate SP: higher = more of the variant in the gate that binds the original peptide and not the novel one = retained original binding. Fold enrichment of the CDR3 variant in one FACS gate of a two-tetra, unresolved parent, parent is a CDR3 fragment, scale: fold enrichment, numbering: sequential-on-construct, sequence ….
Regarding […] (CDR3 as printed); G6W derived by comparing it with the table's wild-type CDR3 ASSPTGGSPSPLH, the enrichment turned out to be 0.

On to […] (CDR3 as printed); S3I derived by comparing it with the table's wild-type CDR3 ASSPTGGSPSPLH, for which the enrichment was found to be 0.

For […] (CDR3 as printed); A1M derived by comparing it with the table's wild-type CDR3 ASSPTGGSPSPLH, the enrichment was 0.

Regarding […] (CDR3 as printed); P11D derived by comparing it with the table's wild-type CDR3 ASSPTGGSPSPLH, the enrichment came out at 0.

Turning to […] (CDR3 as printed); S10A derived by comparing it with the table's wild-type CDR3 ASSPTGGSPSPLH, the enrichment turned out to be 10.5.

Take […] (CDR3 as printed); G6R derived by comparing it with the table's wild-type CDR3 ASSPTGGSPSPLH: the enrichment is 0.

As for […] (CDR3 as printed); S8L derived by comparing it with the table's wild-type CDR3 ASSPTGGSPSPLH, the enrichment came to 0.

For the variant […] (CDR3 as printed); S8C derived by comparing it with the table's wild-type CDR3 ASSPTGGSPSPLH, the enrichment was 0.

With […] (CDR3 as printed); P4G derived by comparing it with the table's wild-type CDR3 ASSPTGGSPSPLH, the enrichment was determined as 0.

Take […] (CDR3 as printed); S2Y derived by comparing it with the table's wild-type CDR3 ASSPTGGSPSPLH: the enrichment is 0.

Take […] (CDR3 as printed); P9F derived by comparing it with the table's wild-type CDR3 ASSPTGGSPSPLH: the enrichment was determined as 0.

[…] (CDR3 as printed); P9K derived by comparing it with the table's wild-type CDR3 ASSPTGGSPSPLH: the enrichment is 0.

Turning to […] (CDR3 as printed); S10V derived by comparing it with the table's wild-type CDR3 ASSPTGGSPSPLH, the enrichment is 0.

Take […] (CDR3 as printed); P4D derived by comparing it with the table's wild-type CDR3 ASSPTGGSPSPLH: the enrichment is 0.

For the variant […] (CDR3 as printed); P9Y derived by comparing it with the table's wild-type CDR3 ASSPTGGSPSPLH, the enrichment amounted to 0.

Regarding […] (CDR3 as printed); P9D derived by comparing it with the table's wild-type CDR3 ASSPTGGSPSPLH, the enrichment came to 0.

Turning to […] (CDR3 as printed); S8N derived by comparing it with the table's wild-type CDR3 ASSPTGGSPSPLH, the enrichment worked out at 0.

For […] (CDR3 as printed); S10I derived by comparing it with the table's wild-type CDR3 ASSPTGGSPSPLH, the enrichment was determined as 0.

With […] (CDR3 as printed); S2K derived by comparing it with the table's wild-type CDR3 ASSPTGGSPSPLH, the enrichment was 0.

For the variant […] (CDR3 as printed); P9G derived by comparing it with the table's wild-type CDR3 ASSPTGGSPSPLH, the enrichment is 0.

For […] (CDR3 as printed); H13Y derived by comparing it with the table's wild-type CDR3 ASSPTGGSPSPLH, the enrichment was 6.69.

Regarding […] (CDR3 as printed); G6H derived by comparing it with the table's wild-type CDR3 ASSPTGGSPSPLH, the enrichment was 0.

As for […] (CDR3 as printed); P4L derived by comparing it with the table's wild-type CDR3 ASSPTGGSPSPLH, the enrichment is 0.

On to […] (CDR3 as printed); L12A derived by comparing it with the table's wild-type CDR3 ASSPTGGSPSPLH, for which the enrichment was 0.

On to […] (CDR3 as printed); S3Q derived by comparing it with the table's wild-type CDR3 ASSPTGGSPSPLH, for which the enrichment turned out to be 0.

As to […] (CDR3 as printed); S10W derived by comparing it with the table's wild-type CDR3 ASSPTGGSPSPLH, the enrichment stood at 0.

As to […] (CDR3 as printed); S10E derived by comparing it with the table's wild-type CDR3 ASSPTGGSPSPLH, the enrichment was 5.53.

As for […] (CDR3 as printed); S2T derived by comparing it with the table's wild-type CDR3 ASSPTGGSPSPLH, the enrichment turned out to be 4.08.

Regarding […] (CDR3 as printed); P11F derived by comparing it with the table's wild-type CDR3 ASSPTGGSPSPLH, the enrichment is 0.

On to […] (CDR3 as printed); P9L derived by comparing it with the table's wild-type CDR3 ASSPTGGSPSPLH, for which the enrichment turned out to be 1.13.

On to […] (CDR3 as printed); L12H derived by comparing it with the table's wild-type CDR3 ASSPTGGSPSPLH, for which the enrichment was determined as 0.

As for […] (CDR3 as printed); P9C derived by comparing it with the table's wild-type CDR3 ASSPTGGSPSPLH, the enrichment is 0.

With […] (CDR3 as printed); L12Q derived by comparing it with the table's wild-type CDR3 ASSPTGGSPSPLH, the enrichment came out at 0.

Turning to […] (CDR3 as printed); P11G derived by comparing it with the table's wild-type CDR3 ASSPTGGSPSPLH, the enrichment was found to be 0.

As to […] (CDR3 as printed); L12D derived by comparing it with the table's wild-type CDR3 ASSPTGGSPSPLH, the enrichment worked out at 0.

With […] (CDR3 as printed); G7N derived by comparing it with the table's wild-type CDR3 ASSPTGGSPSPLH, the enrichment worked out at 0.

In the case of […] (CDR3 as printed); P11W derived by comparing it with the table's wild-type CDR3 ASSPTGGSPSPLH, the enrichment was determined as 0.

[…] (CDR3 as printed); G7E derived by comparing it with the table's wild-type CDR3 ASSPTGGSPSPLH: the enrichment amounted to 0.336.

With […] (CDR3 as printed); S2A derived by comparing it with the table's wild-type CDR3 ASSPTGGSPSPLH, the enrichment turned out to be 3.53.

For the variant […] (CDR3 as printed); H13S derived by comparing it with the table's wild-type CDR3 ASSPTGGSPSPLH, the enrichment was 7.33.

As to […] (CDR3 as printed); H13L derived by comparing it with the table's wild-type CDR3 ASSPTGGSPSPLH, the enrichment was determined as 5.69.

In the case of […] (CDR3 as printed); P4F derived by comparing it with the table's wild-type CDR3 ASSPTGGSPSPLH, the enrichment amounted to 1.88.

With […] (CDR3 as printed); S8E derived by comparing it with the table's wild-type CDR3 ASSPTGGSPSPLH, the enrichment was 0.

Consider […] (CDR3 as printed); G7K derived by comparing it with the table's wild-type CDR3 ASSPTGGSPSPLH, for which the enrichment stood at 0.

[…] (CDR3 as printed); G7R derived by comparing it with the table's wild-type CDR3 ASSPTGGSPSPLH: the enrichment was found to be 0.

With […] (CDR3 as printed); T5W derived by comparing it with the table's wild-type CDR3 ASSPTGGSPSPLH, the enrichment came out at 15.1.

As for […] (CDR3 as printed); P4I derived by comparing it with the table's wild-type CDR3 ASSPTGGSPSPLH, the enrichment turned out to be 0.897.

With […] (CDR3 as printed); S3P derived by comparing it with the table's wild-type CDR3 ASSPTGGSPSPLH, the enrichment is 0.

Turning to […] (CDR3 as printed); G7C derived by comparing it with the table's wild-type CDR3 ASSPTGGSPSPLH, the enrichment was 0.

The same test, now with this note: with HLA-A*02:01 with peptide … (NLV 3-1, the original bait), tetramers 1 µg/mL, 30 min on ice, DP and SW gates expanded about 10 days between rounds ('two to three rounds of selection' in the Methods), gate SP: higher = more of the variant in the gate that binds the original peptide and not the novel one = retained original binding. Fold enrichment of the CDR3 variant in one FACS gate of a two-tetra, unresolved parent, parent is a CDR3 fragment, zero in all gates, scale: fold enrichment, numbering: ….
[…] (CDR3 as printed); S2L derived by comparing it with the table's wild-type CDR3 ASSPTGGSPSPLH: the enrichment is 0.
